Measured values as given in PMC8061786 (Journal of Molecular Biology, 2021).

Target: the molecule itself
Assay: crystal structure

B1: SARS-CoV main protease (M^pro) (enzyme)
chain: SGFRKMAFPSGKVEGCMVQVTCGTTTLNGLWLDDTVYCPRHVICTAEDMLNPNYEDLLIRKSNHSFLVQAGNVQLRVIGHSMQNCLLRLKVDTSNPKTPKYKFVRIQPGQTFSVLACYNGSPSGVYQCAMRPNHTIKGSFLNGSCGSVGFNIDYDCVSFCYMHHMELPTGVHAGTDLEGKFYGPFVDRQTAQAAGTDTTITLNVLAWLYAAVINGDRWFLNRFTTTLNDFNLVAMKYNYEPLTQDHVDILGPLSAQTGIAVLDMCAALKELLQNGMNGRTILGSTILEDEFTPFDVVRQCSGVTFQ
B1: binds.
